Laboratory results from patent US20070174009A1, “Methods and systems for analyzing a network of biological functions” (National Institute Of Advanced Industrial Science And …, priority 2004, published 2007).

B1: BDNF: ligand of receptor tyrosine kinase NTRK2 (protein, UniProt P23560 19-247, looked up)
Neurotrophic factor BDNF …: APMKEANIRGQGGLAYPGVRTHGTLESVNGPKAGSRGLTSLADTFEHVIEELLDEDQKVRPNEENNKDADLYTSRVMLSSQVPLEPPLLFLLEEYKNYLDAANMSMRVRRHSDPARRGELSVCDSISEWVTAADKKTAVDMSGGTVTVLEKVPVSKGQLKQYFYETKCNPMGYTKEGCRGIDKRHWNSQCRTTQSYVRALTMDSKKRIGWRFIRIDTSCVCTLTIKRGR
B2: Pehrin A3: ligand of receptor tyrosine kinases EPHA2 and EPHA3 (protein, UniProt P52797 23-214, looked up)
Ephrin-A3: QGPGGALGNRHAVYWNSSNQHLRREGYTVQVNVNDYLDIYCPHYNSSGVGPGAGPGPGGGAEQYVLYMVSRNGYRTCNASQGFKRWECNRPHAPHSPIKFSEKFQRYSAFSLGYEFHAGHEYYYISTPTHNLHWKCLRMKVFVCCASTSHSGEKPVPTLPQFTMGPNVKINVLEDFEGENPQVPKLEKSISG
B3: NGF: NGF (Sigma 2.5 S #N-6009) (protein, UniProt P01139 122-241, looked up)
Beta-nerve growth factor: SSTHPVFHMGEFSVCDSVSVWVGDKTTATDIKGKEVTVLAEVNINNSVFRQYFFETKCRASNPVESGCRGIDSKHWNSYCTTTHTFVKALTTDEKQAAWRFIRIDTACVCVLSRKATRRG
modifications: 2.5S NGF
B4: Ephrin B2: ligand of receptor tyrosine kinases EPHB1, EPHB2, EPHB3 (protein, UniProt P52799 28-333, looked up)
Ephrin-B2: IVLEPIYWNSSNSKFLPGQGLVLYPQIGDKLDIICPKVDSKTVGQYEYYKVYMVDKDQADRCTIKKENTPLLNCAKPDQDIKFTIKFQEFSPNLWGLEFQKNKDYYIISTSNGSLEGLDNQEGGVCQTRAMKILMKVGQDASSAGSTRNKDPTRRPELEAGTNGRSSTTSPFVKPNPGSSTDGNSAGHSGNNILGSEVALFAGIASGCIIFIVIIITLVVLLLKYRRRHRKHSPQHTTTLSLSTLATPKRSGNNNGSEPSDIIIPLRTADSVFCPHYEKVSGDYGHPVYIVQEMPPQSPANIYYKV

Legend:
[1] = system: human neuroblastoma SHSY5Y; assay: Marker enzyme expression (ChAT, TH) in the presence of each ligand of the receptor tyrosine kinase; assay type: cell-based; conditions: SHSY5Y cells, ChAT vs TH, beta-actin control, FIG. 19
From the text: Cholinergic neuron-like cells were identified by using anti-choline acetyltransferase antibody, and dopaminergic neuron-like cells were identified by using anti-tyrosine hydroxylase antibody, both of which are available from Clontech.
Next, the marker enzyme expression in the presence of each ligand of the receptor tyrosine kinase has been studied.

[2] = system: human neuroblastoma SHSY5Y; assay: Differentiation (neuritegenesis) of SH-SY5Y cells by RA or NGF; assay type: cell-based; conditions: SH-SY5Y culture with RA or NGF added, FIG. 13
Protocol: Human neuroblastoma (SHSY5Y) cells were maintained in Eagle's minimum essential medium (EMEM) supplemented with 10% (v/v) foetal bovine serum (FBS), 2% (v/v) glutamine and 1% (v/v) penicillin/streptomycin (10% medium), hereafter referred to as growth medium. Cells were incubated at 37° C. in a humidified atmosphere of 5% carbon dioxide.
Differentiation has been performed according to Yamada Y. et al., Neurosci Lett. 2004 Jun. 24; 364(1):11-15. Briefly, 100 ng/ml of NGF or […] of retinoic acid was added to the culture medium differentiate the SHSY5Y cells. Usually, when retinoic acid is added, the cell differentiates into cholinergic neuron-like cell as exemplified in FIG. 13. When NGF is added, the cell differentiates into dopaminergic neuron-like cells as exemplified in FIG. 13.

Row | Molecule | Marker enzyme expression (ChAT, TH) in the presence of ligand [1] | Differentiation of SH-SY5Y cells [2]
1 | insulin: ligand of receptor tyrosine kinase INSR [reference compound] | dopaminergic | –
2 | B1 | dopaminergic | –
3 | B2 | dopaminergic | –
4 | B3 | dopaminergic | differentiated into doperminergia neuron-like cells
5 | B4 | dopaminergic | –
